Substitutions are numbered along the chain they refer to. Names and notes keep the numbering of the source.
T1: FcgRIIaR (human, UniProt P12318 34-217)
T1 construct: extracellular domain; also called FcγRIIa R type; FcγRIIa (R type)
T1 sequence (looked up): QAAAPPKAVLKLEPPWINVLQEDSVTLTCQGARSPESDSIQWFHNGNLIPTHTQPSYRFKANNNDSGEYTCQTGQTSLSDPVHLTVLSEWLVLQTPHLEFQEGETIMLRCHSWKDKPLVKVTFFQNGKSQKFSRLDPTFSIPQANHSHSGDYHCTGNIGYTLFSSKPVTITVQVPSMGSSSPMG

T2: FcgRIIaH (human, UniProt P12318 34-217)
T2 construct: extracellular domain; also called FcγRIIa H type
T2 sequence (looked up): T1 sequence (looked up) with R134H

T3: FcgRIIb (human, UniProt P31994 43-217)
T3 construct: extracellular domain; also called FcγRIIb
T3 sequence (looked up): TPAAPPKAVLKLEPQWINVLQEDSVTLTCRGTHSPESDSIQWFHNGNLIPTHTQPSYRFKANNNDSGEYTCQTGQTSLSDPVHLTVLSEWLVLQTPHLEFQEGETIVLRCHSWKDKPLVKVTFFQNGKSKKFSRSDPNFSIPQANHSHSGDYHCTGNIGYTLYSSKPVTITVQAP

T4: FcγRIIa R type extracellular domain, His tag (human, UniProt P12318 34-217)
T4 construct: extracellular domain; also called FcgRIIaR
T4 sequence (looked up): T1 sequence (looked up)

T5: FcγRIIb extracellular domain, His tag (human, UniProt P31994 43-217)
T5 construct: extracellular domain; also called FcgRIIb
T5 sequence (looked up): T3 sequence (looked up)

B1: IL6R-P631/IL6R-L (antibody, human IgG1, kappa)
heavy: QVQLQESGPGLVKPSETLSLTCAVSGHSISHDHAWSWVRQPPGEGLEWIGFISYSGITNYNPSLQGRVTISRDNSKNTLYLQMNSLRAEDTAVYYCARSLARTTAMDYWGEGTLVTVSSASTKGPSVFPLAPSSKSTSGGTAALGCLVKDYFPEPVTVSWNSGALTSGVHTFPAVLQSSGLYSLSSVVTVPSSSLGTQTYICNVNHKPSNTKVDKKVEPKSCDKTHTCPPCPAPDLLGGDSVFLFPPKPKDTLMISRTPEVTCVVINVAEEDGEVKFNWYVDGVEVHNAKTKPREEQYNSTYRVVSVLTVLHQDWLNGKEYKCKVSNKALPAPIEKTISKAKGQPREPQVYTLPPSRDELTKNQVSLTCLVKGFYPSDIAVEWESNGQPENNYKTTPPVLDSDGSFFLYSKLTVDKSRWQQGNVFSCSVMHEALHNHYTQKSLSLSP
light: not shown
B2: IL6R-P626/IL6R-L (antibody, human IgG1, kappa)
heavy: B1 heavy with L236R, N267D
light: not shown
B3: IL6R-P625/IL6R-L (antibody, human IgG1, kappa)
heavy: B1 heavy with L236K, N267D
light: not shown
B4: IL6R-P636/IL6R-L (antibody, human IgG1, kappa)
heavy: B1 heavy with N267D, A269R
light: not shown
B5: IL6R-P652/IL6R-L (antibody, human IgG1, kappa)
heavy: B1 heavy with G239D, N267D, A269Y, Y298D, A332R, P398M
light: not shown
B6: IL6R-P665/IL6R-L (antibody, human IgG1, kappa)
heavy: B1 heavy with G239D, N267D, Y298D, N299A, A332R, P398M
light: not shown
notes: also called IL6R-P665/1L6R-L
B7: IL6R-P629/IL6R-L (antibody, human IgG1, kappa)
heavy: B1 heavy with G239K, N267D
light: not shown
B8: IL6R-P694/IL6R-L (antibody, human IgG1, kappa)
heavy: B1 heavy with N267D, A269R, Y298E
light: not shown
B9: IL6R-P712/IL6R-L (antibody, human IgG1, kappa)
heavy: B1 heavy with N267D, A269R, E270P, Y298E
light: not shown
B10: IL6R-P699/IL6R-L (antibody, human IgG1, kappa)
heavy: B1 heavy with N267D, A269R, E270P
light: not shown
notes: Printed H238P read as H268P
B11: IL6R-P702/IL6R-L (antibody, human IgG1, kappa)
heavy: B1 heavy with F243M, N267D, A269R
light: not shown
B12: IL6R-PD089/IL6R-L (antibody, human IgG1, kappa)
heavy: B1 heavy with D235E, G239Q, M254Y, I266V, N267D, A269S, E270H, G273P, N436Y
light: not shown
B13: IL6R-BP361/IL6R-L (antibody, human IgG1, kappa, name in EU numbering)
heavy: B1 heavy with G239D, I266V, N267D, A269R, K441E
light: not shown
B14: IL6R-BP325/IL6R-L (antibody, human IgG1, kappa, name in EU numbering)
heavy: B1 heavy with G239D, I266V, N267S, A269S, K441E
light: not shown
B15: IL6R-BP321/IL6R-L (antibody, human IgG1, kappa, name in EU numbering)
heavy: B1 heavy with G239D, I266V, A269S, K441E
light: not shown
B16: IL6R-BP355/IL6R-L (antibody, human IgG1, kappa, name in EU numbering)
heavy: B1 heavy with G239D, I266V, N267D, A269K, K441E
light: not shown
B17: IL6R-BP318/IL6R-L (antibody, human IgG1, kappa, name in EU numbering)
heavy: B1 heavy with G239D, I266V, N267K, A269S, K441E
light: not shown
B18: IL6R-BP267/IL6R-L (antibody, human IgG1, kappa)
heavy: B1 heavy with G239D, I266V, N267D, A269S, K441E
light: not shown
notes: IL6R-BF648 with E233D/G237D/H268E/P271G
B19: IL6R-BP324/IL6R-L (antibody, human IgG1, kappa, name in EU numbering)
heavy: B1 heavy with G239D, I266V, N267R, A269S, K441E
light: not shown

target: T6, FcgRIa (human, UniProt P12314 16-292); assay: SPR (Biacore)
T6 construct: also called FcγRIa; FcγRI
T6 sequence (P12314 16-292): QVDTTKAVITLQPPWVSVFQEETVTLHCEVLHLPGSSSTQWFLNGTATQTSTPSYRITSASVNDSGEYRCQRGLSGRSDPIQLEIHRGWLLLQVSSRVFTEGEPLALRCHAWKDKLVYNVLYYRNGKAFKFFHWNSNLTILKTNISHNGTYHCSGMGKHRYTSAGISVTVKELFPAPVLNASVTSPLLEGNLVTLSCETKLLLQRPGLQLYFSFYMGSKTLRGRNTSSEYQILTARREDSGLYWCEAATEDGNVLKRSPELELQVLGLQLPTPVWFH

Binder | Relative FcgRIa-binding Activity
B1 | 0.03 KD(G1d)/KD(variant)
B2 | 0.0004 KD(G1d)/KD(variant)
B3 | 0.0007 KD(G1d)/KD(variant)
B4 | 0.0007 KD(G1d)/KD(variant)
B5 | 0.0005 KD(G1d)/KD(variant)
B6 | 0.0002 KD(G1d)/KD(variant)
B7 | 0.1 KD(G1d)/KD(variant)

target: T1, FcgRIIaR; assay: SPR (Biacore)

Binder | Relative FcgRIIaR-binding Activity
B1 | 0.048 KD(G1d)/KD(variant)
B2 | 0.041 KD(G1d)/KD(variant)
B3 | 0.051 KD(G1d)/KD(variant)
B4 | 0.023 KD(G1d)/KD(variant)
B5 | 0.051 KD(G1d)/KD(variant)
B6 | 0.025 KD(G1d)/KD(variant)
B7 | 0.047 KD(G1d)/KD(variant)

target: T2, FcgRIIaH; assay: SPR (Biacore)

Binder | Relative FcgRIIaH-binding Activity
B1 | 0.01 KD(G1d)/KD(variant)
B2 | 0.005 KD(G1d)/KD(variant)
B3 | 0.005 KD(G1d)/KD(variant)
B4 | 0.006 KD(G1d)/KD(variant)
B5 | 0.006 KD(G1d)/KD(variant)
B6 | 0.002 KD(G1d)/KD(variant)
B7 | 0.01 KD(G1d)/KD(variant)

target: T3, FcgRIIb; assay: SPR (Biacore)

Binder | Relative FcgRIIb-binding Activity
B1 | 1.16 KD(G1d)/KD(variant)
B2 | 1.9 KD(G1d)/KD(variant)
B3 | 3.06 KD(G1d)/KD(variant)
B4 | 1.77 KD(G1d)/KD(variant)
B5 | 4.18 KD(G1d)/KD(variant)
B6 | 1.6 KD(G1d)/KD(variant)
B7 | 7.97 KD(G1d)/KD(variant)

target: T7, FcgRIIIaV (human, UniProt P08637 17-208); assay: SPR (Biacore)
T7 construct: extracellular domain; also called FcγRIIIa V type
T7 sequence (P08637 17-208 F176V): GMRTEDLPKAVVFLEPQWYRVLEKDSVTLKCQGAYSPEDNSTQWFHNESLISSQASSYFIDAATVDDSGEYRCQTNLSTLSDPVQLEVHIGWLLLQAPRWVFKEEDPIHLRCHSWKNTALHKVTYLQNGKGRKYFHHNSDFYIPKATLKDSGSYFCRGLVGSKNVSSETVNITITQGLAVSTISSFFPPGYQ

Binder | Relative FcgRIIIaV-binding Activity
B1 | 0.007 KD(G1d)/KD(variant)
B2 | 0.005 KD(G1d)/KD(variant)
B3 | 0.005 KD(G1d)/KD(variant)
B4 | 0.008 KD(G1d)/KD(variant)
B5 | 0.005 KD(G1d)/KD(variant)
B6 | 0.005 KD(G1d)/KD(variant)
B7 | 0.007 KD(G1d)/KD(variant)

target: T6, FcgRIa; assay: SPR (Biacore); remark: another data set of the same source

Binder | Relative FcgRIa-binding Activity
B8 | 0.0008 KD(G1d)/KD(variant)
B9 | 0.0005 KD(G1d)/KD(variant)
B10 | 0.0005 KD(G1d)/KD(variant)
B11 | 0.0006 KD(G1d)/KD(variant)

target: T1, FcgRIIaR; assay: SPR (Biacore); remark: another data set of the same source

Binder | Relative FcgRIIaR-binding Activity
B8 | 0.02 KD(G1d)/KD(variant)
B9 | 0.017 KD(G1d)/KD(variant)
B10 | 0.022 KD(G1d)/KD(variant)
B11 | 0.023 KD(G1d)/KD(variant)

target: T2, FcgRIIaH; assay: SPR (Biacore); remark: another data set of the same source

Binder | Relative FcgRIIaH-binding Activity
B8 | 0.005 KD(G1d)/KD(variant)
B9 | 0.003 KD(G1d)/KD(variant)
B10 | 0.004 KD(G1d)/KD(variant)
B11 | 0.006 KD(G1d)/KD(variant)

target: T3, FcgRIIb; assay: SPR (Biacore); remark: another data set of the same source

Binder | Relative FcgRIIb-binding Activity
B8 | 1.83 KD(G1d)/KD(variant)
B9 | 1.52 KD(G1d)/KD(variant)
B10 | 1.26 KD(G1d)/KD(variant)
B11 | 1.27 KD(G1d)/KD(variant)

target: T7, FcgRIIIaV; assay: SPR (Biacore); remark: another data set of the same source

Binder | Relative FcgRIIIaV-binding Activity
B8 | 0.007 KD(G1d)/KD(variant)
B9 | 0.004 KD(G1d)/KD(variant)
B10 | 0.005 KD(G1d)/KD(variant)
B11 | 0.008 KD(G1d)/KD(variant)

target: T4, FcγRIIa R type extracellular domain, …; assay: SPR, bound amount per captured antibody

Binder | Relative FcgRIIaR-binding Activity
B12 | 65 % of IL6R-F652/IL6R-L

target: T5, FcγRIIb extracellular domain, His tag; assay: SPR, bound amount per captured antibody

Binder | Relative FcgRIIb-binding Activity
B12 | 66 % of IL6R-F652/IL6R-L

target: T1, FcgRIIaR; assay: SPR, amount bound per captured antibody

Binder | Relative FcgRIIaR-binding Activity [IL6R-BP267/IL6R-L=100]
B13 | 17.3
B14 | 11.6
B15 | 16.3
B16 | 11.6
B17 | 4.3
B18 | 100
B19 | 3.7

target: T3, FcgRIIb; assay: SPR, amount bound per captured antibody

Binder | Relative FcgRIIb-binding Activity [IL6R-BP267/IL6R-L=100]
B13 | 27.7
B14 | 21
B15 | 31.7
B16 | 14.4
B17 | 2.3
B18 | 100
B19 | 3.2

target: T1, FcgRIIaR; assay: SPR, amount bound per captured antibody; remark: another data set of the same source

Binder | Relative FcgRIIaR-binding Activity [IL6R-G1d/IL6R-L=100]
B1 | 26.7
B2 | 24.4
B3 | 26.8
B4 | 13.8
B5 | 27.5
B6 | 15
B7 | 29.9

target: T3, FcgRIIb; assay: SPR, amount bound per captured antibody; remark: another data set of the same source

Binder | Relative FcgRIIb-binding Activity [IL6R-G1d/IL6R-L=100]
B1 | 110
B2 | 129
B3 | 141
B4 | 120
B5 | 149
B6 | 121
B7 | 164
